Measurements published in the supplement of paper PMC11316812.
± gives the standard deviation of the averaged measurements.

Tests used:
[1] = system: hTERT-HMEC; assay: percentage of EdU-negative (G0-arrested) nuclei per well, 72 h; higher = more G0 arrest; details: reference: sequence is the full UniProt precursor, the tested protein was the secreted form or ectodomain
[2] = system: MCF7; assay: as above; details: reference: sequence is the full UniProt precursor, the tested protein was the secreted form or ectodomain
[3] = protein concentration 0.03125 µM
[4] = protein concentration 0.3125 µM
[5] = protein concentration 0.0225 µM
[6] = protein concentration 0.0143975 µM
[7] = protein concentration 0.0290625 µM
[8] = protein concentration 0.143975 µM
[9] = protein concentration 0.290625 µM
[10] = protein concentration 0.02175 µM
[11] = protein concentration 0.2175 µM
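Also: secreted proteins added to cultured cells, EdU pulse at the end, nuclei found by Hoechst imaging, EdU status from nuclear versus surrounding ring intensity ratio, PBS as neutral control.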

Row | Sequence | percentage of EdU-negative [1, 5] | percentage of EdU-negative ([1]; protein concentration 0.225 µM) | percentage of EdU-negative [2, 5] | percentage of EdU-negative ([2]; protein concentration 0.225 µM) | also measured
1 | MDTIFLWSLLLLFFGSQASRCSAQKNTEFAVDLYQEVSLSHKDNIIFSPLGITLVLEMVQLGAKGKAQQQIRQTLKQQETSAGEEFFVLKSFFSAISEKKQEFTFNLANALYLQEGFTVKEQYLHGNKEFFQSAIKLVDFQDAKACAEMISTWVERKTDGKIKDMFSGEEFGPLTRLVLVNAIYFKGDWKQKFRKEDTQLINFTKKNGSTVKIPMMKALLRTKYGYFSESSLNYQVLELSYKGDEFSLIIILPAEGMDIEEVEKLITAQQILKWLSEMQEEEVEISLPRFKVEQKVDFKDVLYSLNITEIFSGGCDLSGITDSSEVYVSQVTQKVFFEINEDGSEAATSTGIHIPVIMSLAQSQFIANHPFLFIMKHNPTESILFMGRVTNPDTQEIKGRDLDSL |  |  |  |  | percentage of EdU-negative [1, 3]: 4.81 ± 0.69%; percentage of EdU-negative [1, 4]: 6.48 ± 0.78%; percentage of EdU-negative [2, 3]: 24 ± 0.53%; percentage of EdU-negative [2, 4]: 24.9 ± 1.8%
2 | MDGAMGPRGLLLCMYLVSLLILQAMPALGSATGRSKSSEKRQAVDTAVDGVFIRSLKVNCKVTSRFAHYVVTSQVVNTANEAREVAFDLEIPKTAFISDFAVTADGNAFIGDIKDKVTAWKQYRKAAISGENAGLVRASGRTMEQFTIHLTVNPQSKVTFQLTYEEVLKRNHMQYEIVIKVKPKQLVHHFEIDVDIFEPQGISKLDAQASFLPKELAAQTIKKSFSGKKGHVLFRPTVSQQQSCPTCSTSLLNGHFKVTYDVSRDKICDLLVANNHFAHFFAPQNLTNMNKNVVFVIDISGSMRGQKVKQTKEALLKILGDMQPGDYFDLVLFGTRVQSWKGSLVQASEANLQAAQDFVRGFSLDEATNLNGGLLRGIEILNQVQESLPELSNHASILIMLTDGDPTEGVTDRSQILKNVRNAIRGRFPLYNLGFGHNVDFNFLEVMSMENNGRAQRIYEDHDATQQLQGFYSQVAKPLLVDVDLQYPQDAVLALTQNHHKQYYEGSEIVVAGRIADNKQSSFKADVQAHGEGQEFSITCLVDEEEMKKLLRERGHMLENHVERLWAYLTIQELLAKRMKVDREERANLSSQALQMSLDYGFVTPLTSMSIRGMADQDGLKPTIDKPSEDSPPLEMLGPRRTFVLSALQPSPTHSSSNTQRLPDRVTGVDTDPHFIIHVPQKEDTLCFNINEEPGVILSLVQDPNTGFSVNGQLIGNKARSPGQHDGTYFGRLGIANPATDFQLEVTPQNITLNPGFGGPVFSWRDQAVLRQDGVVVTINKKRNLVVSVDDGGTFEVVLHRVWKGSSVHQDFLGFYVLDSHRMSARTHGLLGQFFHPIGFEVSDIHPGSDPTKPDATMVVRNRRLTVTRGLQKDYSKDPWHGAEVSCWFIHNNGAGLIDGAYTDYIVPDIF | 5.89 ± 0.64% | 6.12 ± 0.16% | 26.48 ± 0.18% | 26 ± 0.27% | 
3 | MATMVPSVLWPRACWTLLVCCLLTPGVQGQEFLLRVEPQNPVLSAGGSLFVNCSTDCPSSEKIALETSLSKELVASGMGWAAFNLSNVTGNSRILCSVYCNGSQITGSSNITVYRLPERVELAPLPPWQPVGQNFTLRCQVEDGSPRTSLTVVLLRWEEELSRQPAVEEPAEVTATVLASRDDHGAPFSCRTELDMQPQGLGLFVNTSAPRQLRTFVLPVTPPRLVAPRFLEVETSWPVDCTLDGLFPASEAQVYLALGDQMLNATVMNHGDTLTATATATARADQEGAREIVCNVTLGGERREARENLTVFSFLGPIVNLSEPTAHEGSTVTVSCMAGARVQVTLDGVPAAAPGQPAQLQLNATESDDGRSFFCSATLEVDGEFLHRNSSVQLRVLYGPKIDRATCPQHLKWKDKTRHVLQCQARGNPYPELRCLKEGSSREVPVGIPFFVNVTHNGTYQCQASSSRGKYTLVVVMDIEAGSSHFVPVFVAVLLTLGVVTIVLALMYVFREHQRSGSYHVREESTYLPLTSMQPTEAMGEEPSRAE | 4.98 ± 0.59% | 16.4 ± 1.8% | 25.2 ± 0.75% | 28 ± 1.2% | 
4 | MKLNLVQIFFMLLMLLLGLGMGLGLGLHMATAVLEESDQPLNEFWSSDSQDKAEATEEGDGTQTTETLVLSNKEVVQPGWPEDPILGEDEVGGNKMLRASALFQSNKDYLRLDQTDRECNDMMAHKMKEPSQSCIAQYAFIHEDLNTVKAVCNSPVIACELKGGKCHKSSRPFDLTLCELSQPDQVTPNCNYLTSVIKKHIIITCNDMKRQLPTGQ [Q5GAN6] | 5.66 ± 1.3% | 5.77 ± 0.33% | 27.3 ± 3.4% | 25.2 ± 0.41% | 
5 | MSEEVTYADLQFQNSSEMEKIPEIGKFGEKAPPAPSHVWRPAALFLTLLCLLLLIGLGVLASMFHVTLKIEMKKMNKLQNISEELQRNISLQLMSNMNISNKIRNLSTTLQTIATKLCRELYSKEQEHKCKPCPRRWIWHKDSCYFLSDDVQTWQESKMACAAQNASLLKINNKNALEFIKSQSRSYDYWLGLSPEEDSTRGMRVDNIINSSAWVIRNAPDLNNMYCGYINRLYVQYYHCTYKKRMICEKMANPVQLGSTYFREA [Q5QGZ9] | 4.07 ± 0.067% | 4.99 ± 0.84% | 25.2 ± 1.6% | 28.95 ± 0.13% | 
6 | MKLITILFLCSRLLLSLTQESQSEEIDCNDKDLFKAVDAALKKYNSQNQSNNQFVLYRITEATKTVGSDTFYSFKYEIKEGDCPVQSGKTWQDCEYKDAAKAATGECTATVGKRSSTKFSVATQTCQITPAEGPVVTAQYDCLGCVHPISTQSPDLEPILRHGIQYFNNNTQHSSLFMLNEVKRAQRQVVAGLNFRITYSIVQTNCSKENFLFLTPDCKSLWNGDTGECTDNAYIDIQLRIASFSQNCDIYPGKDFVQPPTKICVGCPRDIPTNSPELEETLTHTITKLNAENNATFYFKIDNVKKARVQVVAGKKYFIDFVARETTCSKESNEELTESCETKKLGQSLDCNAEVYVVPWEKKIYPTVNCQPLGMISLMKRPPGFSPFRSSRIGEIKEETTVSPPHTSMAPAQDEERDSGKEQGHTRRHDWGHEKQRKHNLGHGHKHERDQGHGHQRGHGLGHGHEQQHGLGHGHKFKLDDDLEHQGGHVLDHGHKHKHGHGHGKHKNKGKKNGKHNGWKTEHLASSSEDSTTPSAQTQEKTEGPTPIPSLAKPGVTVTFSDFQDSDLIATMMPPISPAPIQSDDDWIPDIQIDPNGLSFNPISDFPDTTSPKCPGRPWKSVSEINPTTQMKESYYFDLTDGLS |  |  |  |  | percentage of EdU-negative ([1]; protein concentration 0.006 µM): 4.85 ± 0.42%; percentage of EdU-negative ([1]; protein concentration 0.06 µM): 6.72 ± 0.15%; percentage of EdU-negative ([2]; protein concentration 0.006 µM): 24.3 ± 0.58%; percentage of EdU-negative ([2]; protein concentration 0.06 µM): 26.5 ± 0.67%
7 | MEALMARGALTGPLRALCLLGCLLSHAAAAPSPIIKFPGDVAPKTDKELAVQYLNTFYGCPKESCNLFVLKDTLKKMQKFFGLPQTGDLDQNTIETMRKPRCGNPDVANYNFFPRKPKWDKNQITYRIIGYTPDLDPETVDDAFARAFQVWSDVTPLRFSRIHDGEADIMINFGRWEHGDGYPFDGKDGLLAHAFAPGTGVGGDSHFDDDELWTLGEGQVVRVKYGNADGEYCKFPFLFNGKEYNSCTDTGRSDGFLWCSTTYNFEKDGKYGFCPHEALFTMGGNAEGQPCKFPFRFQGTSYDSCTTEGRTDGYRWCGTTEDYDRDKKYGFCPETAMSTVGGNSEGAPCVFPFTFLGNKYESCTSAGRSDGKMWCATTANYDDDRKWGFCPDQGYSLFLVAAHEFGHAMGLEHSQDPGALMAPIYTYTKNFRLSQDDIKGIQELYGASPDIDLGTGPTPTLGPVTPEICKQDIVFDGIAQIRGEIFFFKDRFIWRTVTPRDKPMGPLLVATFWPELPEKIDAVYEAPQEEKAVFFAGNEYWIYSASTLERGYPKPLTSLGLPPDVQRVDAAFNWSKNKKTYIFAGDKFWRYNEVKKKMDPGFPKLIADAWNAIPDNLDAVVDLQGGGHSYFFKGAYYLKLENQSLKSVKFGSIKSDWLGC |  |  |  |  | percentage of EdU-negative [1, 6]: 4.84 ± 0.7%; percentage of EdU-negative [1, 7]: 5.59 ± 1.1%; percentage of EdU-negative [1, 8]: 9.87 ± 1.2%; percentage of EdU-negative [1, 9]: 4.97 ± 0.54%; percentage of EdU-negative [2, 6]: 23.9 ± 0.91%; percentage of EdU-negative [2, 7]: 26.7 ± 1.5%; percentage of EdU-negative [2, 8]: 25.25 ± 0.19%; percentage of EdU-negative [2, 9]: 27.8 ± 0.84%
8 | MSAVLLLALLGFILPLPGVQALLCQFGTVQHVWKVSDLPRQWTPKNTSCDSGLGCQDTLMLIESGPQVSLVLSKGCTEAKDQEPRVTEHRMGPGLSLISYTFVCRQEDFCNNLVNSLPLWAPQPPADPGSLRCPVCLSMEGCLEGTTEEICPKGTTHCYDGLLRLRGGGIFSNLRVQGCMPQPGCNLLNGTQEIGPVGMTENCNRKDFLTCHRGTTIMTHGNLAQEPTDWTTSNTEMCEVGQVCQETLLLLDVGLTSTLVGTKGCSTVGAQNSQKTTIHSAPPGVLVASYTHFCSSDLCNSASSSSVLLNSLPPQAAPVPGDRQCPTCVQPLGTCSSGSPRMTCPRGATHCYDGYIHLSGGGLSTKMSIQGCVAQPSSFLLNHTRQIGIFSAREKRDVQPPASQHEGGGAEGLESLTWGVGLALAPALWWGVVCPSC [Q8N6Q3] |  |  |  |  | percentage of EdU-negative [1, 10]: 4.87 ± 0.96%; percentage of EdU-negative [1, 11]: 6.31 ± 0.15%; percentage of EdU-negative [2, 10]: 26.1 ± 2.3%; percentage of EdU-negative [2, 11]: 26.7 ± 1%
9 | MRLSVRRVLLAAGCALVLVLAVQLGQQVLECRAVLAGLRSPRGAMRPEQEELVMVGTNHVEYRYGKAMPLIFVGGVPRSGTTLMRAMLDAHPEVRCGEETRIIPRVLAMRQAWSKSGREKLRLDEAGVTDEVLDAAMQAFILEVIAKHGEPARVLCNKDPFTLKSSVYLSRLFPNSKFLLMVRDGRASVHSMITRKVTIAGFDLSSYRDCLTKWNKAIEVMYAQCMEVGKEKCLPVYYEQLVLHPRRSLKLILDFLGIAWSDAVLHHEDLIGKPGGVSLSKIERSTDQVIKPVNLEALSKWTGHIPGDVVRDMAQIAPMLAQLGYDPYANPPNYGNPDPFVINNTQRVLKGDYKTPANLKGYFQVNQNSTSSHLGSS | 5.18 ± 0.23% | 36.4 ± 2.8% | 26.7 ± 0.75% | 30.1 ± 1.8% | 
